The values below come from patent publication US10973880B2, “Compositions and methods for treating pulmonary hypertension” (Acceleron Pharma Inc., priority 2016, dated 2021).

Test [1] deals with T1, activin A (Homo sapiens, UniProt P08476).
T1 sequence (P08476 311-426): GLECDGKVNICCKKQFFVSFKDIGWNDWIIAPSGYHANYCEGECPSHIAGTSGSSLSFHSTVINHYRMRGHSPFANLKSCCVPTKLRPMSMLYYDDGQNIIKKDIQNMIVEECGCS
As to the kind of experiment: A-204 reporter gene assay, pGL3(CAGA)12 luciferase. Particulars: Example 13. Format: cell-based. The source says:
An A-204 reporter gene assay was used to evaluate the effects of ActRIIB-Fc proteins and GDF traps on signaling by GDF-11 and activin A. Cell line: human rhabdomyosarcoma (derived from muscle). Reporter vector: pGL3(CAGA)12 (described in Dennler et al, 1998, EMBO 17: 3091-3100). The CAGA12 motif is present in TGF-beta responsive genes (e.g., PAI-1 gene), so this vector is of general use for factors signaling through SMAD2 and 3.
Day 1: Split A-204 cells into 48-well plate.
Day 2: A-204 cells transfected with 10 ug pGL3(CAGA)12 or pGL3(CAGA)12(10 ug)+pRLCMV (1 μg) and Fugene.
Day 3: Add factors (diluted into medium+0.1% BSA). Inhibitors need to be preincubated with factors for 1 hr before adding to cells. Six hrs later, cells were rinsed with PBS and lysed.
This is followed by a luciferase assay.
(§1) In addition, an A-204 Reporter Gene Assay was used to evaluate the effects of ALK4-Fc:ActRIIB-Fc heterodimer and ActRIIB-Fc:ActRIIB-Fc homodimer on signaling by activin A, activin B, GDF11, GDF8, BMP10, and BMP9. Cell line: Human Rhabdomyosarcoma (derived from muscle). Reporter vector: pGL3(CAGA)12 (as described in Dennler et al, 1998, EMBO 17: 3091-3100). The CAGA12 motif is present in TGFβ responsive genes (PAI-1 gene), so this vector is of general use for factors signaling through Smad2 and 3. An exemplary A-204 Reporter Gene Assay is outlined below. • Day 1: Split A-204 cells into 48-well plate. • Day 2: A-204 cells transfected with 10 ug pGL3(CAGA)12 or pGL3(CAGA)12(10 ug)+pRLCMV (1 ug) and Fugene. • Day 3: Add factors (diluted into medium+0.1% BSA). Inhibitors need to be pre-incubated with Factors for about one hr before adding to cells. About six hrs later, cells are rinsed with PBS and then lysed.
(§2) Following the above steps, a Luciferase assay was performed.
On the technique in general: A reporter such as luciferase makes a cellular process visible.

Test [2] deals with rat model of pulmonary arterial hypertension (PAH), monocrotaline (MCT) induced. As to the kind of experiment: monocrotaline rat model of pulmonary arterial hypertension. Format: in vivo, Sprague Dawley rats. The protocol:
The effects of an ActRIIA-mFc fusion protein (ActRIIA-mFc homodimer as described in Example 1), an ALK4-Fc-ActRIIB-Fc heterodimer (as described in Examples 12 and 13), and sildenafil (a phosphodiesterase-5 inhibitor approved for the treatment of PAH) were examined in a rat model of pulmonary arterial hypertension (PAH). In this model, Sprague Dawley rats received a […] injection of monocrotaline (MCT) to induce PAH 24 hours prior to start of therapy.
Rats were separated into different treatment groups (10 mice per group): 1) treatment with MCT (60 mg/kg administered i.p. as a single dose at day 1 of study) and Tris buffered saline (i.p. as 1 ml/kg, every three days) (vehicle treatment group), 2) treatment with an ActRIIA-mFc polypeptide (10 mg/kg administered i.p. every three days) and MCT (60 mg/kg administered i.p. as a single dose at day 1 of study), 3) treatment with an ALK4-Fc:ActRIIB-Fc heterodimer (10 mg/kg administered i.p. every three days) and MCT (60 mg/kg administered i.p. as a single dose at day 1 of study), 4) treatment with sildenafil (30 mg/kg administered orally twice daily) and MCT (60 mg/kg administered i.p. as a single dose at day 1 of study), and 5) control rats (Tris buffered saline administered i.p. as 1 ml/kg, every three days). Rats were treated for 28 days. Body weights were recorded prior to first dose on Day 1 and then weekly throughout the study.
On day 28, rats were anesthetized by an intraperitoneal injection of ketamine/xylazine (80/10 mg/kg). An incision was made in the neck, and a jugular vein was isolated and ligated anteriorly. A fluid-filled pressure catheter was introduced into the right jugular vein to measure pulmonary artery pressure (PAP). Another incision was made in the inguinal region, and femoral artery was isolated and ligated anteriorly. A Millar pressure catheter was introduced into a femoral artery to measure systolic arterial pressure, diastolic pressure, and heart rate. Mean arterial pressure and right PAP were monitored using the Notocord HEM (Croissy sur Seine, Frnace) v3.5 data capture system for approximately 5-10 minutes until stable measurements were obtained. During the measurements, rats were maintained at approximately 37° C. on a heating pad and body temperature was monitored throughout the procedure with a rectal temperature probe. At the conclusion of the procedure, rats were euthanized, and the hearts and lungs were removed. The entire heart was weighed. Next, the atria were removed and the left ventricle with septum (LV+S) was separated from the right ventricle (RV). The ventricles were weighed separately. Hypertrophy was assessed, in part, by calculating RV/LV+S. The lungs were also weighed.
Similar trends were observed on vessel muscularity based on histopathologic scoring. After staining tissue samples to detect αSMA/elastin, 100 pulmonary arterioles, between 10 μm and 50 μm in size, per animal were categorized as non-muscularized, partially muscularized, or completely muscularized. Pulmonary arterioles from vehicle treated rats were determined to be 62.3% completely muscularized, 36.4% partially muscularized, and 1.4% non-muscularized. […] Histopathological scoring of smooth muscle hypertrophy of pulmonary arterioles were also recorded as follows: 0 (normal), 1 (minimal), 2 (mild), 3 (moderate), or 4 (marked).

Test [3] addresses T2, GDF8 (Homo sapiens, UniProt O14793).
T2 sequence (O14793 267-375): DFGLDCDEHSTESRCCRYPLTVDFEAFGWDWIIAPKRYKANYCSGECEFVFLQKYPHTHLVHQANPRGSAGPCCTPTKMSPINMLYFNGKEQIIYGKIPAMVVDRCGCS
As to the kind of experiment: A-204 reporter gene assay, pGL3(CAGA)12 luciferase. Format: cell-based. Particulars: Example 13. Set-up: host or cells: exogenous factor added to A-204 cells (human rhabdomyosarcoma).
From the text: Day 1: Split A-204 cells into 48-well plate. […]
as §1, §2

B1: ALK4-Fc:ActRIIB-Fc heterodimer: heteromeric complex of extracellular domains of human ActRIIB and human ALK4, each separately fused to an Fc domain with a linker (protein)
chain 1: SGPRGVQALLCACTSCLQANYTCETDGACMVSIFNLDGMEHHVRTCIPKVELVPAGKPFYCLSSEDLRNTHCCYTDYCNRIDLRVPSGHLKEPEHPSMWGPVE
chain 2: GRGEAETRECIYYNANWELERTNQSGLERCEGEQDKRLHCYASWRNSSGTIELVKKGCWLDDFNCYDRQECVATEENPQVYFCCCEGNFCNERFTHLPEAGGPEVTYEPPPTAPT
modifications: left off: a dimerising Fc or GST; small tags and cut ends
notes: heteromeric complex of extracellular domains of human ActRIIB and human ALK4, each separately fused to an Fc domain with a linker
Regarding B1, the “inhibition of activin A signaling” value in test [1] was “potent inhibitors”. Moreover, in test [2] (28 days, compared to monocrotaline treated rats, proteins 10 mg/kg i.p. every three days, sildenafil 30 mg/kg orally twice daily), the “improvement in body weight” value is reported as “+5.1%”. In addition, in test [2] (day 28, RV/LV+S, compared to monocrotaline treated rats), the “decrease of right heart hypertrophy” value is recorded as 39.6%. The “decrease of lung weight” value in test [2] (day 28, compared to monocrotaline treated rats) stood at 19.0%. The “reduction of elevated PAP” value in test [2] (day 28, compared to monocrotaline treated rats, same dosing) was 44.6%. The “effect in reducing vascular muscularization compared with sildenafil” value in test [2] (monocrotaline-induced model) is given as “greater effect”. The “inhibition of GDF8 signaling” value in test [3] was “potent inhibitors”.
